Assay results as given in patent US20110263824A1 (JAPAN TOBACCO, published 2011).
Changes are numbered by the printed parent chain.

B1: TM2 R104EK141E (other)
chain: MSDVQSSLTGTWYNELNSKMELTANKDGTLTGKYLSKVGDVYVPYPLSGRYNLQPPAGQGVALGWAVSWENSKIHSATTWSGQFFSESSPVILTQWLLSSSTAEGDVWESTLVGNDSFTKTAPTEQQIAHAQLHCRAPRLE
notes: TM2 double mutant; also called R104-K141
B2: TM2 K26A (other)
chain: B1 chain with K26A, E104R, E141K
notes: TM2 mutant
B3: TM2 R104E (other)
chain: B1 chain with E141K
notes: TM2 mutant
B4: TM2 K141E (other)
chain: B1 chain with E104R
notes: TM2 mutant
B5: TM2 K73Q (other)
chain: B1 chain with K73Q, E104R, E141K
notes: TM2 mutant
B6: tamavidin 2 (wild type) (other)
chain: B1 chain with E104R, E141K
notes: also called TM2; TM2WT

Columns and labels:
fibronectin [1] = assay: summary of Example 1-10: ELISA on fibronectin-immobilized plate
Experimental: (§1) The fibronectin-binding of each low-pI TM2 was compared using a microplate to which fibronectin was immobilized. The concentration of fibronectin was adjusted to 50 μg/mL with a fixation solution exclusive for a New ELISA plate, and the fibronectin solution (50 μL) was added to each New ELISA plate (Sumitomo Bakelite), followed by shaking at 37° C. for 4 hours for immobilization. Then, the plate was washed with 0.1% Triton X-100-containing PBS (300 μL) three times and was then dried naturally.
(§2) TM2, K26A, K73Q, R104E, K141E, and R104EK141E mutants (50 μL each) were each added to the corresponding well of the plate and left at room temperature for 1 hour. The plate was washed with 300 μL/well of PBST (PBS buffer containing 0.1% Tween 20) three times. Then, biotinylated HRP diluted 5000 times with PBST containing 0.5% BSA was added at 50 μL/well and allowed to react with the mutant at room temperature for 1 hour. After washing with 300 μL/well of PBST three times, 50 μL/well of 1-Step Ultra TMB-ELISA solution was added to each well for color development.

fibronectin [2] = assay: ELISA on fibronectin-immobilized plate, biotinylated HRP detection
Experimental: as §1, §2

Binder | amount of fibronectin binding relative to wild type TM2 (fibronectin [1]) | Binding of fibronectin (A450) (fibronectin [2])
B1 | 10 to 20 % of wild type TM2 | 0.11 A450
B2 | – | 0.85 A450
B3 | – | 0.7 A450
B4 | 10 to 20 % of wild type TM2 | 0.21 A450
B5 | – | 0.98 A450
B6 | – | 1.34 A450
